Results: publication PMC12102759 (2025)

B1: CBL peptide 540-555 (E3 ubiquitin-protein ligase CBL), 16-mer library wild type / YES SH3 (YES1 SH3 domain, residues 90-152) (parent complex)
chain 1: RDLPPPPPPDRPYSVG
chain 2: not shown

Variants of: B1
Experiment: proteomic peptide phage display deep mutational scan (ProP-PD DMS): M13 P8 16-mer library selected against immobilised GST-tagged bait for four days (rounds), NGS of the eluted pools per day and pseudo-replica; bait immobilised on MaxiSorp plates (10 µg), library pre-cleared on GST, 2 h binding at 4 °C, five washes; one round per day, days 1-4; value from days 2 and 3

In order of rising screen value:
1. chain 1 L3S  6.99e-05 average fractional NGS count over selection days 2 and 3 (reads of this peptide / all reads for the bait, averaged over …
2. chain 1 S14V  7.3e-05 average fractional NGS count over selection days 2 and 3 (reads of this peptide / all reads for the bait, averaged over …
3. chain 1 L3N  7.55e-05 average fractional NGS count over selection days 2 and 3 (reads of this peptide / all reads for the bait, averaged over …
4. chain 1 P4F  9.76e-05 average fractional NGS count over selection days 2 and 3 (reads of this peptide / all reads for the bait, averaged over …
5. chain 1 D10I  0.000128 average fractional NGS count over selection days 2 and 3 (reads of this peptide / all reads for the bait, averaged over …
6. chain 1 P8G  0.000141 average fractional NGS count over selection days 2 and 3 (reads of this peptide / all reads for the bait, averaged over …
7. chain 1 P7N  0.000153 average fractional NGS count over selection days 2 and 3 (reads of this peptide / all reads for the bait, averaged over …
8. chain 1 P7W  0.000156 average fractional NGS count over selection days 2 and 3 (reads of this peptide / all reads for the bait, averaged over …
9. chain 1 P6N  0.000163 average fractional NGS count over selection days 2 and 3 (reads of this peptide / all reads for the bait, averaged over …
10. chain 1 S14Q  0.000166 average fractional NGS count over selection days 2 and 3 (reads of this peptide / all reads for the bait, averaged over …
11. chain 1 P12Y  0.000171 average fractional NGS count over selection days 2 and 3 (reads of this peptide / all reads for the bait, averaged over …
12. chain 1 D2K  0.000177 average fractional NGS count over selection days 2 and 3 (reads of this peptide / all reads for the bait, averaged over …
13. chain 1 P7K  0.000178 average fractional NGS count over selection days 2 and 3 (reads of this peptide / all reads for the bait, averaged over …
14. chain 1 P12G  0.000184 average fractional NGS count over selection days 2 and 3 (reads of this peptide / all reads for the bait, averaged over …
15. chain 1 P4T  0.00019 average fractional NGS count over selection days 2 and 3 (reads of this peptide / all reads for the bait, averaged over …
16. chain 1 V15T  0.000212 average fractional NGS count over selection days 2 and 3 (reads of this peptide / all reads for the bait, averaged over …
17. chain 1 Y13E  0.000222 average fractional NGS count over selection days 2 and 3 (reads of this peptide / all reads for the bait, averaged over …
18. chain 1 D10S  0.000232 average fractional NGS count over selection days 2 and 3 (reads of this peptide / all reads for the bait, averaged over …
19. chain 1 D10Q  0.000233 average fractional NGS count over selection days 2 and 3 (reads of this peptide / all reads for the bait, averaged over …
20. chain 1 P7Q  0.000262 average fractional NGS count over selection days 2 and 3 (reads of this peptide / all reads for the bait, averaged over …
21. chain 1 V15L  0.000286 average fractional NGS count over selection days 2 and 3 (reads of this peptide / all reads for the bait, averaged over …
22. chain 1 P5A  0.000329 average fractional NGS count over selection days 2 and 3 (reads of this peptide / all reads for the bait, averaged over …
23. chain 1 D10T  0.00033 average fractional NGS count over selection days 2 and 3 (reads of this peptide / all reads for the bait, averaged over …
24. chain 1 D2F  0.000357 average fractional NGS count over selection days 2 and 3 (reads of this peptide / all reads for the bait, averaged over …
25. chain 1 P9E  0.000429 average fractional NGS count over selection days 2 and 3 (reads of this peptide / all reads for the bait, averaged over …
26. chain 1 R11H  0.000484 average fractional NGS count over selection days 2 and 3 (reads of this peptide / all reads for the bait, averaged over …
27. chain 1 R11S  0.000485 average fractional NGS count over selection days 2 and 3 (reads of this peptide / all reads for the bait, averaged over …
28. chain 1 R11E  0.000556 average fractional NGS count over selection days 2 and 3 (reads of this peptide / all reads for the bait, averaged over …
29. chain 1 P12N  0.000558 average fractional NGS count over selection days 2 and 3 (reads of this peptide / all reads for the bait, averaged over …
30. chain 1 Y13K  0.000696 average fractional NGS count over selection days 2 and 3 (reads of this peptide / all reads for the bait, averaged over …
31. chain 1 P7E  0.000775 average fractional NGS count over selection days 2 and 3 (reads of this peptide / all reads for the bait, averaged over …
32. chain 1 P5F  0.00079 average fractional NGS count over selection days 2 and 3 (reads of this peptide / all reads for the bait, averaged over …
33. chain 1 P8D  0.000795 average fractional NGS count over selection days 2 and 3 (reads of this peptide / all reads for the bait, averaged over …
34. chain 1 P5Y  0.000822 average fractional NGS count over selection days 2 and 3 (reads of this peptide / all reads for the bait, averaged over …
35. chain 1 P4I  0.000839 average fractional NGS count over selection days 2 and 3 (reads of this peptide / all reads for the bait, averaged over …
36. chain 1 Y13Q  0.00091 average fractional NGS count over selection days 2 and 3 (reads of this peptide / all reads for the bait, averaged over …
37. chain 1 R1I  0.00103 average fractional NGS count over selection days 2 and 3 (reads of this peptide / all reads for the bait, averaged over …
38. chain 1 D10L  0.00104 average fractional NGS count over selection days 2 and 3 (reads of this peptide / all reads for the bait, averaged over …
39. chain 1 P8A  0.00106 average fractional NGS count over selection days 2 and 3 (reads of this peptide / all reads for the bait, averaged over …
40. chain 1 D2S  0.00111 average fractional NGS count over selection days 2 and 3 (reads of this peptide / all reads for the bait, averaged over …
41. chain 1 R1N  0.00136 average fractional NGS count over selection days 2 and 3 (reads of this peptide / all reads for the bait, averaged over …
42. chain 1 P9G  0.00146 average fractional NGS count over selection days 2 and 3 (reads of this peptide / all reads for the bait, averaged over …
43. chain 1 P12K  0.00165 average fractional NGS count over selection days 2 and 3 (reads of this peptide / all reads for the bait, averaged over …
44. chain 1 R11Q  0.00199 average fractional NGS count over selection days 2 and 3 (reads of this peptide / all reads for the bait, averaged over …
45. chain 1 P12V  0.002 average fractional NGS count over selection days 2 and 3 (reads of this peptide / all reads for the bait, averaged over …
46. chain 1 D10G  0.00202 average fractional NGS count over selection days 2 and 3 (reads of this peptide / all reads for the bait, averaged over …
47. chain 1 D2V  0.00212 average fractional NGS count over selection days 2 and 3 (reads of this peptide / all reads for the bait, averaged over …
48. chain 1 P7L  0.00235 average fractional NGS count over selection days 2 and 3 (reads of this peptide / all reads for the bait, averaged over …
49. chain 1 P8S  0.00243 average fractional NGS count over selection days 2 and 3 (reads of this peptide / all reads for the bait, averaged over …
50. chain 1 P12L  0.0025 average fractional NGS count over selection days 2 and 3 (reads of this peptide / all reads for the bait, averaged over …
51. chain 1 S14G  0.00254 average fractional NGS count over selection days 2 and 3 (reads of this peptide / all reads for the bait, averaged over …
52. chain 1 S14Y  0.00258 average fractional NGS count over selection days 2 and 3 (reads of this peptide / all reads for the bait, averaged over …
53. chain 1 S14P  0.00266 average fractional NGS count over selection days 2 and 3 (reads of this peptide / all reads for the bait, averaged over …
54. chain 1 P9K  0.00297 average fractional NGS count over selection days 2 and 3 (reads of this peptide / all reads for the bait, averaged over …
55. chain 1 P9V  0.00298 average fractional NGS count over selection days 2 and 3 (reads of this peptide / all reads for the bait, averaged over …
56. chain 1 R11G  0.00318 average fractional NGS count over selection days 2 and 3 (reads of this peptide / all reads for the bait, averaged over …
57. chain 1 D2Y  0.00341 average fractional NGS count over selection days 2 and 3 (reads of this peptide / all reads for the bait, averaged over …
58. chain 1 P5N  0.00347 average fractional NGS count over selection days 2 and 3 (reads of this peptide / all reads for the bait, averaged over …
59. chain 1 L3I  0.00353 average fractional NGS count over selection days 2 and 3 (reads of this peptide / all reads for the bait, averaged over …
60. chain 1 V15E  0.00362 average fractional NGS count over selection days 2 and 3 (reads of this peptide / all reads for the bait, averaged over …
61. chain 1 Y13I  0.00384 average fractional NGS count over selection days 2 and 3 (reads of this peptide / all reads for the bait, averaged over …
62. chain 1 P12A  0.00443 average fractional NGS count over selection days 2 and 3 (reads of this peptide / all reads for the bait, averaged over …
63. chain 1 P12F  0.00458 average fractional NGS count over selection days 2 and 3 (reads of this peptide / all reads for the bait, averaged over …
64. chain 1 P8F  0.00526 average fractional NGS count over selection days 2 and 3 (reads of this peptide / all reads for the bait, averaged over …
65. chain 1 V15P  0.00539 average fractional NGS count over selection days 2 and 3 (reads of this peptide / all reads for the bait, averaged over …
66. chain 1 D2A  0.00577 average fractional NGS count over selection days 2 and 3 (reads of this peptide / all reads for the bait, averaged over …
67. chain 1 R1H  0.0063 average fractional NGS count over selection days 2 and 3 (reads of this peptide / all reads for the bait, averaged over …
68. chain 1 P5T  0.00773 average fractional NGS count over selection days 2 and 3 (reads of this peptide / all reads for the bait, averaged over …
69. chain 1 D2P  0.00891 average fractional NGS count over selection days 2 and 3 (reads of this peptide / all reads for the bait, averaged over …
70. chain 1 P5G  0.00951 average fractional NGS count over selection days 2 and 3 (reads of this peptide / all reads for the bait, averaged over …
71. chain 1 P5V  0.0116 average fractional NGS count over selection days 2 and 3 (reads of this peptide / all reads for the bait, averaged over …
72. chain 1 P12M  0.0175 average fractional NGS count over selection days 2 and 3 (reads of this peptide / all reads for the bait, averaged over …
73. chain 1 S14L  0.0182 average fractional NGS count over selection days 2 and 3 (reads of this peptide / all reads for the bait, averaged over …
74. chain 1 D2M  0.0201 average fractional NGS count over selection days 2 and 3 (reads of this peptide / all reads for the bait, averaged over …
75. chain 1 S14E  0.0212 average fractional NGS count over selection days 2 and 3 (reads of this peptide / all reads for the bait, averaged over …
